Laboratory results as given in US20150376276A1 (Seagen, published 2015).

T1: human NTB-A (human, UniProt Q96DU3 22-332)
T1 construct: whole, on cells; also called SLAMF6; hNTB-A
T1 sequence (looked up): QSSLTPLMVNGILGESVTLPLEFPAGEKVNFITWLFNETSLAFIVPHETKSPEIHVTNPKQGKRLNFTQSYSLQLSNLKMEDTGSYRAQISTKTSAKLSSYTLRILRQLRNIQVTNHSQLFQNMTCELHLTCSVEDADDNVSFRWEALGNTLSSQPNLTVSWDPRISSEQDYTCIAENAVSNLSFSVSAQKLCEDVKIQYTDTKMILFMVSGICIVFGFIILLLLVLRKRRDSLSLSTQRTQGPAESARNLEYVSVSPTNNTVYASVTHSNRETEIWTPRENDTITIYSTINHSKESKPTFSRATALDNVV


Columns and labels:
[1] = biological target: T1, human NTB-A; test: flow cytometry competition on NTB-A positive Ramos cells; competitor: AF647-labelled 11A1 at 0.0188 ug/mL; half of the partial effect, not 50% of maximum binding
[2] = biological target: T1, human NTB-A; test: flow cytometry, saturation binding of Alexa Fluor 647-labelled antibody on Ramos cells
Procedure: Antigen positive Ramos cells were plated at 1×10⁵ cells per well in a 96 well V-bottom plate (Thermo Scientific, Rochester, N.Y.). Three-fold serial dilutions of 2× concentrated antibodies were prepared in FACs buffer (PBS+2% fetal bovine serum+0.02% azide) and were added to the cells in duplicate. The antibody solutions were incubated with cells for 1 hour on ice, protected from light. The cells were washed twice with FACs buffer and analyzed on the LSRII flow cytometer (BD BioSciences, San Jose, Calif.). KD values were determined with GraphPad Prism software (La Jolla, Calif.).

[3] = biological target: T1, human NTB-A; test: flow cytometry competition on NTB-A positive Ramos cells; competitor: AF647-labelled 11A1 at 0.0188 ug/mL
Excerpt: To evaluate whether an antibody competes for specific binding to human NTB-A with a mAb comprising the VH and VL domains of the 11A1 mAb (i.e., a VH domain having the amino acid sequence as shown in residues 20-135 of SEQ ID NO:1 and a VL domain having the amino acid sequence as shown in residues 21-140 of SEQ ID NO:2), a competitive binding assay as follows is used.
This assay utilizes a “reference antibody” comprising the 11A1 murine IgG1 antibody (i.e., the 11A1 VH and VL domains in the bivalent structure of a native antibody). NTB-A positive Ramos cells are plated at 2×10⁵ cells per well in a 96 well V-bottom plate (Thermo Scientific, Rochester, N.Y.). […] The antibody solutions are incubated with cells for 1 hour on ice, protected from light. The cells are washed twice with FACs buffer and analyzed on the LSRII flow cytometer (BD BioSciences, San Jose, Calif.). Data are presented as percent of maximum binding. The sample antibody “competes with” the labeled reference antibody for specific binding to NTB-A if the sample antibody reduces the reference antibody's binding to NTB-A to levels less than 45% of maximum binding (i.e., 0 to 45%) at a concentration of 10 μg/ml of unlabeled sample antibody. […]

Molecule	IC50 (read off the curve) [1]	Kd [2]	IC50 (read off the curve) [3]
NT-7 antibody (clone: NT-7 (Biolegend #317208))	0.1 µg/mL	–	–
26B7 murine IgG1 antibody (antibody, V domains shown, Murine IgG1; also called mAb 26B7) VH: QVQLLQPGAEVVKPGTSVKLSCKASGYNFTIYWINWVKLRPGQGLEWIGDIHPGRGNTNLNEKFKTKATLTVDTSSSTAYMQLNSLAFEDSALYYCAREDEDWYFDVWGAGTTVTVSS VL: DIQMNQSPSSLSASLGDTITITCRASQGISIWFNWYQQKSGNIPKLLIYKTSNLHTGVPPRFSGSGSGTDFTLTISSLQPEDIATYYCLQSQSYPYTFGGGTKLEIKR	–	0.16 nM	~0.08 µg/mL
